Experimental data from patent US9433687B2, “Anti-Notch3 antibodies and antibody-drug conjugates” (Pfizer Inc., priority 2012, dated 2016).

Tests used:
[1] = tested on: HCC2429 lung xenografts; assay: HCC2429 lung xenograft model (unconjugated antibodies); type: in vivo, mouse; details: for tumor volume (mm^3 ± SEM): iv Q4dx4
Method: Additional in vivo experiments were performed with the HCC2429 lung cancer cell line using an unconjugated rat-human chimeric anti-Notch3 antibody, ch75-hIgG1, to determine whether ch75-hIgG1's Notch3 signaling inhibition contributed to the observed potency of the anti-Notch3 hu75-ADCs. To generate xenografts, nude (Nu/Nu) female mice were implanted subcutaneously with 3.5×10^6 HCC2429 cells in 50% Matrigel (BD Biosciences).
The HCC2429 lung model was dosed intravenously Q4d×4 with PBS vehicle, rat-human chimeric anti-Notch3 antibody, ch75-hIgG1, and humanized anti-Notch1 antibody, hu438 VH1.1/VL1.8, at the does provided in Table 22. From 8 animals, mean tumor masses (±SEM) for each treatment group were calculated and compared to the control PBS vehicle group. P-values based on analysis of variance (ANOVA) were calculated to determine statistical significance of observed growth inhibition of anti-Notch treatments versus control PBS using Excel built-in statistical functions. Percent (%) growth inhibition values were calculated from measurements on the final day of the study for drug-treated compared with vehicle-treated mice with the formula 100*{1−[(TreatedDay 14−TreatedDay 0)/(ControlDay 14−ControlDay 0)]}.

[2] = biological target: T1, HCC2429 (Homo sapiens, UniProt Q9UM47); assay: Flow cytometry (FACS) binding, HCC2429; details: 4 μg/mL antibody
T1 construct: endogenous Notch3 expressing cell lines, HCC2429 and MDA-MB-468; endogenous in cells; host or cells: HCC2429
T1 sequence (Q9UM47 40-2321): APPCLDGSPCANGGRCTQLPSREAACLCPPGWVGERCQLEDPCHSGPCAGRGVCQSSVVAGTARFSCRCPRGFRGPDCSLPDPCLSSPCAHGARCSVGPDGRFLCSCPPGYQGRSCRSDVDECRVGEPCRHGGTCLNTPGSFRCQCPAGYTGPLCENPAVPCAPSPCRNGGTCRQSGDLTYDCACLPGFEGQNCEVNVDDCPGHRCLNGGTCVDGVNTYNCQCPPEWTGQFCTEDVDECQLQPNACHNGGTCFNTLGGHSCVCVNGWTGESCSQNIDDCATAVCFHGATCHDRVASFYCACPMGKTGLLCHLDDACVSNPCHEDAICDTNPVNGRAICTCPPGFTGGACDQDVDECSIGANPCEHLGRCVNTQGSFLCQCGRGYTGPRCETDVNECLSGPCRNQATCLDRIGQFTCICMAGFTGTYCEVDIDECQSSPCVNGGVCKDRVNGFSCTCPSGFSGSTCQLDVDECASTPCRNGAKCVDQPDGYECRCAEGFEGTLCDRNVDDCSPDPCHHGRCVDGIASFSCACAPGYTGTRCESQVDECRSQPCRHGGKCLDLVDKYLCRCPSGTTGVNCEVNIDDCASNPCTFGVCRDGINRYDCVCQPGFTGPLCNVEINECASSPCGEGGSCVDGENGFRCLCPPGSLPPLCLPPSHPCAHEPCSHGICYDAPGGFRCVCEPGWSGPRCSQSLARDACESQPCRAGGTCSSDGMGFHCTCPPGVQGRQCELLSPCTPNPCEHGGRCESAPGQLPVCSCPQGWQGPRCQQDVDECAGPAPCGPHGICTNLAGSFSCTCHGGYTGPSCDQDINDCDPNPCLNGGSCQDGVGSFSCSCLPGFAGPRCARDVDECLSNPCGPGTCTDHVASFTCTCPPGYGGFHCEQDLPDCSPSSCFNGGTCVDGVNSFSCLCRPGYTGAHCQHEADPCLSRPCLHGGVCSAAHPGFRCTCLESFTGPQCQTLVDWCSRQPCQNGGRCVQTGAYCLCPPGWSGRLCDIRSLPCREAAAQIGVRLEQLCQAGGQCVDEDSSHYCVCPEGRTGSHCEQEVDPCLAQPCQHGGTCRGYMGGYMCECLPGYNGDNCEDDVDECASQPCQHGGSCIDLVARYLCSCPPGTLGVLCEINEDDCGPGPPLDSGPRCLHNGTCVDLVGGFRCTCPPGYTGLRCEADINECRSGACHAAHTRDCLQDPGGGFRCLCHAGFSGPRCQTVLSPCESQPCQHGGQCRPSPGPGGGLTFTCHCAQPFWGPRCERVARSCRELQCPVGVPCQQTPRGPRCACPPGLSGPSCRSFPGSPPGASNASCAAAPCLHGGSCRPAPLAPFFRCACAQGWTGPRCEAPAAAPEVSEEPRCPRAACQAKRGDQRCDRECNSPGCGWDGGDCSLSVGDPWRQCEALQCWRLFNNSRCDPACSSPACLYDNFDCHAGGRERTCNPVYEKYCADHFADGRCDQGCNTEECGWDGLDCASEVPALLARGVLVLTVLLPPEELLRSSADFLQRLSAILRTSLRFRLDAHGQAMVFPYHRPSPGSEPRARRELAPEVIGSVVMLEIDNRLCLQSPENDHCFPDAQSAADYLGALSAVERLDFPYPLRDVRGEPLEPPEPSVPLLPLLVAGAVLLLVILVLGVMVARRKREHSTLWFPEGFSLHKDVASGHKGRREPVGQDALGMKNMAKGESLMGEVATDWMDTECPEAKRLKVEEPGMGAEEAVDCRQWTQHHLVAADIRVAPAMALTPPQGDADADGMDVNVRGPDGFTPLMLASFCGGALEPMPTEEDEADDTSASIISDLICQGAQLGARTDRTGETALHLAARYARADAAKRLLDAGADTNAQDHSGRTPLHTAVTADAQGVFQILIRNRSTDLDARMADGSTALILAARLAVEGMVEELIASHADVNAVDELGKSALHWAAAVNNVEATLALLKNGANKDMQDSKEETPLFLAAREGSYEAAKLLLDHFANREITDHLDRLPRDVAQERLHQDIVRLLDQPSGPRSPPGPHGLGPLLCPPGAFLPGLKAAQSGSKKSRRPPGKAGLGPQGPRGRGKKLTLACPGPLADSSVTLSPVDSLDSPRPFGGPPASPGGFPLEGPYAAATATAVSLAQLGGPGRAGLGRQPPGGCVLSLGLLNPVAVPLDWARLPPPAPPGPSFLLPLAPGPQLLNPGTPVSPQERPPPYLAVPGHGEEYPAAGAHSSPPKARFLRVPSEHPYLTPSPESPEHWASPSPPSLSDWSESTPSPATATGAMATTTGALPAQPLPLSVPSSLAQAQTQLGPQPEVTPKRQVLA
Method: Unconjugated anti-Notch3 antibodies, hu28 and hu75, were examined for cell surface binding activity to Notch3 expressing cell lines by flow cytometry. Fluorescence activated cell sorting (FACS) analysis was conducted according to standard procedures. Cells were rinsed in HBSS with calcium chloride and magnesium chloride (herein termed HBSS++), harvested using trypsin without EDTA and neutralized with medium containing FBS. Cells were incubated on ice for 30 minutes with 4 μg/mL anti-Notch3 antibodies, hu28 and hu75, in HBSS++containing 3% HICS (heat-inactivated calf serum). Cells were washed three times with cold HBSS++, 3% HICS buffer. Cells were incubated in allophycocyanin-conjugated AffiniPure F(ab′)2 fragment goat anti-human IgG, Fc fragment secondary antibody (Jackson ImmunoResearch Laboratories, Inc., West Grove, Pa.) at 10 μg/mL for 30 minutes on ice in the dark. Cells were washed once with cold HBSS++/3% HICS buffer. Cells were resuspended in HBSS-++/3% HICS, 25 mM HEPES, 1 mM MgCl2 and 25 μg/ml DNaseI. 7-AAD (7-Amino-Actinomycin D) was added for exclusion of nonviable cells. Live cells were analyzed on a BD FACSCalibur flow cytometer (BD Biosciences, San Jose, Calif.). Mean fluorescence intensity (MFI) from channel FL-4 was calculated with FlowJo flow cytometry analysis software (Ashland, Oreg.).

[3] = biological target: T2, MDA-MB-468/hNotch3 (Homo sapiens, UniProt Q9UM47); assay: In vitro cytotoxicity (MTS), MDA-MB-468/hNotch3; type: cell-based; details: MDAMB468/hNotch3; data not shown
T2 construct: cell lines engineered to over-express full length human Notch3 protein: MDA-MB-468/hNotch3 and U2OS/hNotch3; expressed in transfected cells; host or cells: MDA-MB-468
T2 sequence (Q9UM47 40-2321): as above
Method: The effects of anti-Notch3 ADCs were assessed on 1) cell lines endogenously expressing Notch3 protein: HCC2429 (lung cancer), OVCAR3 (ovarian cancer) and MDA-MB-468 (breast cancer), 2) cell lines engineered to over-express full length human Notch3 protein: MDA-MB-468/hNotch3 and U2OS/hNotch3, and 3) a negative control cell line (SW900) using an MTS cellular viability indicator (Promega, Madison, Wis.). These cell lines were cultured with increasing concentrations of anti-Notch3 ADCs comprising rat-human chimeric anti-Notch3 antibodies, ch28 and ch75, and humanized anti-Notch3 antibodies, hu28 and hu75, conjugated to various linker-payload combinations of the present invention. As a specificity control for the anti-Notch3-ADCs, non-targeted control-ADCs (huNeg8.8-ADCs or ch2H6-ADCs) were also tested on the same cell lines. After four days, viability of each culture was assessed. IC50 values were calculated by logistic non-linear regression, model #203 with XL fit v4.2 (IDBS, Guildford, Surry, UK) and presented as ng Ab/mL. The drug antibody ratio (DAR) is also provided.

Molecule	tumor volume (mm^3 ± SEM) ([1]; Day 0, dose not given)	tumor volume (mm^3 ± SEM) ([1]; Day 3)	tumor volume (mm^3 ± SEM) ([1]; Day 5)	tumor volume (mm^3 ± SEM) ([1]; Day 7)	tumor volume (mm^3 ± SEM) ([1]; Day 10)	tumor volume (mm^3 ± SEM) ([1]; Day 12)	tumor volume (mm^3 ± SEM) ([1]; Day 14)	tumor growth inhibition compared to PBS vehicle ([1]; final day of the study (Day 14))	MFI [2]	effect of unconjugated antibody on viability [3]
ch75: rat-human chimeric anti-Notch3 antibody 75, rat variable regions fused with human IgG1 and human kappa (antibody, V domains shown) VH: QVKLLQSGAALVKPGASVKMSCKASGYAFTDYWVTWVKQSHGKSLEWIGEISPNSGGTNFNEKFKGKATLTVDKSTSTAYMELSRLTSEDSAIYYCTRGEIRYNWFAYWGQGTLVTVSS VL: NIVMTQSPKSMSISVGDRVTMNCKASQNVGNNIAWYQQKPGQSPKLLIYYASNRYTGVPDRFTGGGYGTDFTLTINSMQAEDAAFYYCQRLYNSPFTFGSGTKLEIK	110 ± 5 mm^3	211 ± 24 mm^3	356 ± 41 mm^3	574 ± 59 mm^3	1054 ± 104 mm^3	1441 ± 139 mm^3	1821 ± 175 mm^3	did not inhibit tumor growth	–	–
hu28 VH1.0/VL1.0: humanized r28 variant VH1.0/VL1.0, anti-Notch3 antibody (VH SEQ ID NO: 13, VL SEQ ID NO: 25) (antibody, V domains shown) VH: EVQLVESGGGLVQPGGSLRLSCAASGFTFRDYGMTWVRQAPGKGLEWVAYISSGSNYIYYAEAVKGRFTISRDNAKNSLYLQMNSLRAEDTAVYYCARRGPFVLDAWGQGTLVTVSS VL: DIQMTQSPSSLSASVGDRVTITCKASQSINRYLHWYQQKPGKAPKLLIYNANGLQTGVPSRFSGSGSGTDFTLTISSLQPEDFATYYCLQHNTWPDTFGGGTKVEIK	–	–	–	–	–	–	–	–	564	did not affect the viability
